These results are taken from the RNAGym collection of RNA variant scans (doi:10.7554/elife.90254).

The chains are these.
B1: LINE1-mini (parent)
chain: GGCAGAGCUCAACACAGCGUGGCAAAGUGGCUGUGGCUAGACUGCC

The variants in the data set derive from B1. The data set can be described thus: self-cleavage, relative activity (ratio to wild type); higher = more cleavage; in vitro, sequencing; the parent is a self-cleaving ribozyme.
On to G30A U43C, for which the self-cleavage is 0.22.

In the case of G30A U43A, the self-cleavage amounted to 0.12.

Regarding C31A U32G, the self-cleavage worked out at 0.05.

On to C31A U32A, for which the self-cleavage was found to be 0.05.

For C31A U32C, the self-cleavage turned out to be 0.07.

With C31A C37A, the self-cleavage was 0.08.

Take C31A C37G: the self-cleavage is 0.07.

Turning to C31A C37U, the self-cleavage was 0.09.

On to G30C G33U, for which the self-cleavage came out at 0.07.

G30C G33A: the self-cleavage came to 0.06.

With G30C G33C, the self-cleavage is 0.03.

Take C31G G40A: the self-cleavage came out at 0.05.

Regarding C31G G40C, the self-cleavage came out at 0.05.

Turning to C31G G40U, the self-cleavage turned out to be 0.03.

For G30C C42G, the self-cleavage was 0.04.

As to G30C C42A, the self-cleavage came to 0.12.

For the variant G30C C42U, the self-cleavage turned out to be 0.18.

For C31U U34G, the self-cleavage turned out to be 0.04.

Regarding C31U U34A, the self-cleavage was 0.06.

As for C31U U34C, the self-cleavage came to 0.12.

Turning to G30C G40C, the self-cleavage turned out to be 0.18.

Consider G30C G40U, for which the self-cleavage was 0.16.

For G30C G40A, the self-cleavage came out at 0.13.

Consider G30C A39G, for which the self-cleavage is 0.12.

Turning to G30C A39C, the self-cleavage worked out at 0.26.

Turning to G30C A39U, the self-cleavage was 2.23.

For C31G C46A, the self-cleavage turned out to be 0.06.

On to C31G C46G, for which the self-cleavage was determined as 0.04.

C31G C46U: the self-cleavage turned out to be 0.07.

With G30U G35U, the self-cleavage worked out at 0.08.

G30U G35C: the self-cleavage came out at 0.07.

Turning to G30U G35A, the self-cleavage worked out at 0.05.

Consider C31A C45A, for which the self-cleavage worked out at 0.05.

With C31A C45U, the self-cleavage worked out at 0.13.

In the case of C31A C45G, the self-cleavage turned out to be 0.06.

Regarding G30A C42U, the self-cleavage was 0.6.

G30A C42G: the self-cleavage was determined as 0.05.

Turning to G30A C42A, the self-cleavage was determined as 0.14.

With C31G G33U, the self-cleavage amounted to 0.06.

For C31G G33C, the self-cleavage is 0.03.

On to C31G G33A, for which the self-cleavage turned out to be 0.05.

On to G30A A39G, for which the self-cleavage was 0.11.

Turning to G30A A39U, the self-cleavage came to 1.69.

For the variant G30A A39C, the self-cleavage turned out to be 0.4.

As for G30U, the self-cleavage was determined as 1.62.

As for G30A, the self-cleavage turned out to be 1.87.

In the case of G30C, the self-cleavage stood at 1.63.

As for U32A U34C, the self-cleavage was 0.15.

For U32A U34G, the self-cleavage came to 0.03.

Turning to U32A U34A, the self-cleavage is 0.05.

Take G30U A39G: the self-cleavage was 0.09.

With G30U A39U, the self-cleavage turned out to be 0.87.

Consider G30U A39C, for which the self-cleavage was determined as 0.19.

For G30U A41C, the self-cleavage worked out at 0.06.

Consider G30U A41G, for which the self-cleavage is 0.35.

On to G30U A41U, for which the self-cleavage was found to be 0.64.

On to C31A U43A, for which the self-cleavage was 0.08.

For C31A U43C, the self-cleavage came to 0.05.

For C31A U43G, the self-cleavage is 0.15.

Take G30A G40C: the self-cleavage came to 0.16.

In the case of G30A G40U, the self-cleavage turned out to be 0.18.

Regarding G30A G40A, the self-cleavage was determined as 0.19.

For the variant G30A U32C, the self-cleavage turned out to be 0.21.

G30A U32G: the self-cleavage was determined as 0.41.

Take G30A U32A: the self-cleavage was 0.13.

For G30A C45U, the self-cleavage is 1.57.

For G30A C45G, the self-cleavage amounted to 0.4.

As for G30A C45A, the self-cleavage worked out at 0.71.

For the variant C31U G33U, the self-cleavage was determined as 0.06.

Regarding C31U G33A, the self-cleavage stood at 0.09.

As to C31U G33C, the self-cleavage is 0.15.

As for C31U G40C, the self-cleavage came to 0.03.

On to C31U G40U, for which the self-cleavage stood at 0.04.

With C31U G40A, the self-cleavage was 0.04.

Consider C31G U32A, for which the self-cleavage came out at 0.05.

Consider C31G U32C, for which the self-cleavage is 0.08.

On to C31G U32G, for which the self-cleavage is 0.08.

As to U32A C46U, the self-cleavage came to 0.1.

As to U32A C46G, the self-cleavage worked out at 0.28.

Take U32A C46A: the self-cleavage came to 0.08.

G30U U43G: the self-cleavage came out at 0.2.

On to G30U U43C, for which the self-cleavage turned out to be 0.1.

As for G30U U43A, the self-cleavage came to 0.11.

In the case of G30C C46U, the self-cleavage was found to be 1.09.

Turning to G30C C46G, the self-cleavage came to 0.59.

For G30C C46A, the self-cleavage is 0.45.

As for U32A C37U, the self-cleavage stood at 0.08.

In the case of U32A C37A, the self-cleavage is 0.04.

With U32A C37G, the self-cleavage turned out to be 0.08.

For the variant C31G G36A, the self-cleavage came to 0.1.

For C31G G36C, the self-cleavage turned out to be 0.04.

C31G G36U: the self-cleavage came to 0.05.

C31A G36C: the self-cleavage came out at 0.13.

For C31A G36A, the self-cleavage came to 0.11.

Turning to C31A G36U, the self-cleavage came to 0.12.

For G30C C31U, the self-cleavage was 1.32.

Turning to G30C C31A, the self-cleavage was determined as 0.75.

As for G30C C31G, the self-cleavage was determined as 0.44.

For C31G A39C, the self-cleavage is 0.12.

With C31G A39G, the self-cleavage is 0.03.

Consider C31G A39U, for which the self-cleavage came to 0.06.

In the case of C31A U34A, the self-cleavage was 0.05.

As for C31A U34C, the self-cleavage was 0.06.

Consider C31A U34G, for which the self-cleavage worked out at 0.02.

Consider G30U C42A, for which the self-cleavage is 0.12.

Regarding G30U C42U, the self-cleavage was found to be 0.32.

Turning to G30U C42G, the self-cleavage turned out to be 0.05.

For G30C A41C, the self-cleavage was 0.05.

With G30C A41U, the self-cleavage is 0.73.

Consider G30C A41G, for which the self-cleavage is 0.21.

In the case of G30A C46U, the self-cleavage turned out to be 1.33.

Regarding G30A C46G, the self-cleavage came to 1.5.

As for G30A C46A, the self-cleavage was 1.15.

As for G30A G44A, the self-cleavage stood at 0.64.

On to G30A G44C, for which the self-cleavage was 0.56.

For G30A G44U, the self-cleavage came out at 0.18.

In the case of G30A A41G, the self-cleavage worked out at 0.27.

In the case of G30A A41C, the self-cleavage turned out to be 0.07.

Take G30A A41U: the self-cleavage was 0.6.

On to U32A G36A, for which the self-cleavage is 0.06.

Consider U32A G36U, for which the self-cleavage stood at 0.05.

With U32A G36C, the self-cleavage was determined as 0.11.

Consider U32A C42G, for which the self-cleavage is 0.06.

Consider U32A C42U, for which the self-cleavage was 0.05.

Regarding U32A C42A, the self-cleavage turned out to be 0.05.

With G30U C45U, the self-cleavage worked out at 1.11.

With G30U C45A, the self-cleavage amounted to 0.49.

On to G30U C45G, for which the self-cleavage is 0.29.

Consider G30U G40A, for which the self-cleavage came out at 0.08.

Regarding G30U G40U, the self-cleavage was determined as 0.13.

As to G30U G40C, the self-cleavage was determined as 0.09.

Take C31A A39U: the self-cleavage was 0.11.

For C31A A39C, the self-cleavage was 0.05.

Take C31A A39G: the self-cleavage came out at 0.05.

For G30C G35C, the self-cleavage is 0.09.

In the case of G30C G35A, the self-cleavage is 0.09.

Take G30C G35U: the self-cleavage is 0.19.

Turning to C31U C46U, the self-cleavage was 0.23.

With C31U C46A, the self-cleavage came to 0.15.

C31U C46G: the self-cleavage worked out at 0.08.

Take C31G C42U: the self-cleavage came to 0.09.

As for C31G C42G, the self-cleavage worked out at 0.06.

Regarding C31G C42A, the self-cleavage was 0.05.

Consider G30A G35U, for which the self-cleavage is 0.09.

For G30A G35C, the self-cleavage came to 0.08.

Take G30A G35A: the self-cleavage worked out at 0.12.

For the variant G30A G33U, the self-cleavage turned out to be 0.08.

Take G30A G33C: the self-cleavage worked out at 0.07.

Take G30A G33A: the self-cleavage was determined as 0.1.

For the variant G30C C37U, the self-cleavage was 0.1.

With G30C C37G, the self-cleavage amounted to 0.07.

Turning to G30C C37A, the self-cleavage was 0.07.

Turning to G30U C46A, the self-cleavage turned out to be 1.42.

With G30U C46U, the self-cleavage is 1.24.

Consider G30U C46G, for which the self-cleavage amounted to 1.29.

In the case of G30U G36A, the self-cleavage turned out to be 0.19.

With G30U G36U, the self-cleavage stood at 0.05.

As for G30U G36C, the self-cleavage came to 0.11.

Turning to G30C G44U, the self-cleavage is 0.09.

Take G30C G44C: the self-cleavage was 0.27.

G30C G44A: the self-cleavage was found to be 0.2.

In the case of U32A G35U, the self-cleavage is 0.05.

With U32A G35A, the self-cleavage stood at 0.04.

On to U32A G35C, for which the self-cleavage turned out to be 0.08.

Consider C31U C42A, for which the self-cleavage was determined as 0.09.

Take C31U C42G: the self-cleavage amounted to 0.04.

Regarding C31U C42U, the self-cleavage came to 0.09.
